# Reference: patent US11998613B2, “Antibody-drug conjugates containing an anti-mesothelin antibody and uses thereof” (DEVELOPMENT CENTER FOR BIOTECHNOLOGY, priority 2020, dated 2024)
# B1: DCBPR2002: humanized anti-mesothelin antibody, heavy chain variable region SEQ ID NO: 11, light chain variable region SEQ ID NO: 12 (antibody, V domains shown)
# VH: QVQLVQSGAEVKKPGASVKVSCKASGYSFTGYTMNWVRQAPGQGLEWMGLITPYNGASSYNQKFRGRVTMTRDTSISTAYMELSRLRSDDTAVYYCARGGYDGRGFDYWGQGTLVTVSS
# VL: EIVLTQSPATLSLSPGERATLSCSASSSVSYMHWYQQKPGQAPRLLIYDTSKLASGIPARFSGSGSGTDFTLTISSLEPEDFAVYYCQQWSKHPLTFGQGTKVEIKR
# modifications: Artificial antibody
# B2: DCBPR2002-4(DBCO-vc-seco-DUBA): DCBPR2002-4Az reacted with DBCO-vc-seco DUBA; ADC, DAR ~4 (conjugate)
# VH: B1 VH
# VL: B1 VL
# Assays:
# mesothelin protein [1] = target: T1, mesothelin protein (Homo sapiens, UniProt Q13421); assay: Affinity measurements and kinetic analysis using BIAcore (SPR), mesothelin immobilised; assay type: binding
# Procedure: To know the biding kinetics difference among individual antibodies, surface plasmon resonance (SPR) measurement with a BIAcore T200 (Cytiva Inc.) was used as previously described (Karlsson & Falt, (1997) J. Immunol Methods 200:121-133). Carboxymethylated dextran biosensor chips (CM5, Cytiva Inc.) were activated with N-ethyl-N′-(3-dimethylaminopropyl)-carbodiimide hydrochloride (EDC) and N-hydroxysuccinimide (NHS) according to the supplier's instructions. Mesothelin protein was diluted with 10 mM sodium acetate, pH 4.0, into 5 μg/ml before injection at a flow rate of 10 μL/minute to achieve approximately 1500 response units (RU) of coupled protein followed by the injection of 1M ethanolamine to block unreacted groups. For kinetics measurements, two-fold serial dilutions of anti-mesothelin mAb (0.3125 nM to 40 nM) were injected in HBS-EP+ Biacore running buffer provided by the manufacturer (Cytiva Inc.) at 25 degree C. at a flow rate of 30 μL/min, and binding responses on the mesothelin protein were corrected by subtraction of responses on a blank flow cell. Association rates (kon or ka) and dissociation rates (koff or kd) were calculated using a simple one-to-one Langmuir binding model with separate fittings of kon and koff was used. (Cytiva.™. Biacore Insight Evaluation Software).
# mesothelin protein [2] = target: T1, mesothelin protein; assay: Binding kinetics of anti-mesothelin ADCs by surface plasma resonance (Biacore T100); conditions: analyte MSLN
# Procedure: The kinetic constant of the anti-mesothelin ADCs interaction against mesothelin was determined by surface plasma resonance (Biacore® T100, Biacore, Inc., Piscataway, NJ). The flow cell of the CM5 wafer was fixed with approximately 10,000 reaction units (RU) of anti-human IgG-Fc (Biacore®) in 10 mM glycine pH 5.0 at 10 μL/min for 600 seconds. 10 μg/mL of anti-mesothelin antibody and anti-mesothelin ADCs diluted in TBS at 10 μl/min were captured on CM5 chips. Four concentrations (from 3.7 to 100 nM) of human mesothelin recombinant protein and zero concentration (flow buffer) in 100 μl/min binding were recorded in PBS containing 1 mM CaCl2 for 3 minutes. The dissociation of the complex was measured for 10 minutes. The water surface was regenerated by injecting 3 M MgCl2 and 3 mM EGTA at 10 μl/min for 60 seconds. The curve obtained after subtracting the reference and buffer signals was taken into the 1:1 Langmuir binding model using the Biacore® T100 evaluation software (Biacore®).
# [3] = tested on: KLM-1 human pancreatic cancer xenograft; assay: KLM-1 xenograft model (Example 44); assay type: in vivo; conditions: 30 mg/kg IV once weekly for 3 weeks
# Procedure: Each of the formulations was administered intravenously (IV) to the mice once weekly for three weeks.
# (§1) Five mice were housed in each cage.
# When the average tumor volume had reached 200 mm^3, the mice were randomLy divided into 4 groups (N=6 per group). Each of the vehicle, DCBPR2002-4(DBCO-vc-MMAE) (15 and 30 mg/kg), and naked antibody (DCBPR2002, 30 mg/kg) was intravenously administered once weekly for 3 weeks.
# (§2) Differences are considered significant at *P<0.05.
# [4] = tested on: Ovarian carcinoma cell line OVCAR-3 (MSLN+); assay: In vitro cytotoxicity, CellTiter-Glo luminescent cell viability assay, OVCAR-3; assay type: cell-based, human; conditions: OVCAR-3, 72 hours treatment; read-out: Relative IC50 (nM of toxic payload/ADCs)
# Procedure: (§3) The KLM-1 & OVCAR-3 cell lines were maintained in an atmosphere of 5% CO2 in a humidified 37° C. incubator. The day before treatment, cells were collected and seeded into 96-well plates (4,000 cells per well). On the second day, cells were treated with 3-fold serial dilution concentration of toxic payloads and ADCs. Each treatment was performed in eight triplicate data points. After the treatment of 72 hours, cell viability was assessed by CellTiter-Glo® kit (Promega) according to the manufacturer's instruction. At the end of the incubation, luminescence was measured using a SpectraMax i3x Multi Mode Detection Platform (Molecular Devices). Compound cytotoxicity was evaluated in comparison to cells treated with 0.05% PBS (ADCs) or 0.05% DMSO (toxic payload). IC50 values were calculated by fitting viability data with a four-parameter logistic equation using GraphPad prism 5.0 software.
# [5] = tested on: KLM-1 human pancreatic cancer xenograft; assay: KLM-1 xenograft model (Example 45); conditions: 15 mg/kg IV once weekly for 3 weeks
# Procedure: Formulations respectively comprising test article DCBPR2002-4(DBCO-vc-MMAE)(15 mg/kg), test article DCBPR2002-4(DBCO-vc-seco-DUBA)(15 mg/kg), test article DCBPR2002-4(DBCO-s-DM1) (15 mg/kg), test article DCBPR2002-2(DBCO-vc-MMAE)-2(DBCO-vc-seco-DUBA) (15 mg/kg), test article DCBPR2002-2(DBCO-vc-MMAE)-2(DBCO-s-DM1) (15 mg/kg), test article DCBPR2002-2(DBCO-vc-seco-DUBA)-2(DBCO-s-DM1) (15 mg/kg), and a corresponding vehicle were formulated by diluting the stock with a 25 mM sodium citrate buffer (pH6.5). Each of the formulations was administered intravenously (IV) once weekly for three weeks.
# The KLM-1 cells were maintained in vitro as a monolayer culture in RPMI-1640 medium supplemented with 10% fetal bovine serum at 37° C. in an atmosphere of 5% CO2 in air. The tumor cells were routinely sub-cultured twice weekly by trypsin-EDTA treatment. The cells growing in an exponential growth phase were harvested and counted for tumor inoculation.
# Male NOD SCID mice at age of 6-7 weeks were purchased from BioLasco Taiwan Co., LTD. and quarantined for one week. Five mice were housed in each cage. All animals were hosted in the animal facility with a 12-h light/12-h dark cycle at 19-25° C. Animals had free access to rodent pellet foods and water ad libitum.
# KLM-1 cells were subcutaneously (SC) implanted (4×10^6 cells in 1:1 PBS/matrigel mixture at 0.1 mL per mouse) into the right flank of male NOD SCID mice. When the average tumor volume had reached 300 mm^3, the mice were randomly divided into 7 groups (N=6 per group). Each of the vehicle, DCBPR2002-4(DBCO-vc-MMAE), DCBPR2002-4(DBCO-vc-seco-DUBA), DCBPR2002-4(DBCO-s-DM1), DCBPR2002-2(DBCO-vc-MMAE)-2(DBCO-vc-seco-DUBA), DCBPR2002-2(DBCO-vc-MMAE)-2(DBCO-s-DM1), DCBPR2002-2(DBCO-vc-seco-DUBA)-2(DBCO-s-DM1) was intravenously administered as 15 mg/kg once weekly for 3 weeks.
# The tumor volumes, body weights, mortality, and signs of overt toxicity were monitored and recorded three times weekly for 28 days. Tumor volumes were measured three times per week using calipers and calculated according to the formula: Tumor Volume=(w2×l)/2, where w=width and l=length in diameter (mm) of the tumor. […] One-way ANOVA followed by Dunnett's test was applied for comparison between the vehicle and test article-treated groups. Differences are considered significant at *P<0.05. Animals were weighed three times weekly until the completion of the study.
# [6] = tested on: Pancreatic cancer cell line KLM-1 (MSLN+); assay: In vitro cytotoxicity, CellTiter-Glo luminescent cell viability assay, KLM-1; assay type: cell-based, human; conditions: KLM-1, 72 hours treatment; read-out: Relative IC50 (nM of toxic payload/ADCs)
# Procedure: as §3, with “Pancreatic cancer cell line KLM-1 was respectively grown in RPMI 1640 Medium (ATCC modification) medium supplemented with 10% fetal bovine serum. Ovarian carcinoma cell line OVCAR-3 was grown in RPMI 1640 Medium (ATCC modification) medium supplemented with 20% fetal bovine serum. The KLM-1” for “The KLM-1”
# [7] = tested on: OVCAR-3 human ovarian cancer xenograft; assay: OVCAR-3 xenograft model (Example 46); assay type: in vivo, female NOD SCID mice; conditions: 15 mg/kg IV once weekly for 3 weeks
# Procedure: as §1
# OVCAR-3 cells were subcutaneously (SC) implanted (1×10^7 cells in 1:1 PBS/matrigel mixture at 0.2 mL per mouse) into the right flank of female NOD SCID mice. […] Each of the vehicle, DCBPR2002-4(DBCO-vc-MMAE) (15 and 30 mg/kg), and DCBPR2002-4(DBCO-vc-seco-DUBA) (15 mg/kg) was intravenously administered once weekly for 3 weeks.
# as §2
# T1 sequence (Q13421 with tags, fused parts or gaps): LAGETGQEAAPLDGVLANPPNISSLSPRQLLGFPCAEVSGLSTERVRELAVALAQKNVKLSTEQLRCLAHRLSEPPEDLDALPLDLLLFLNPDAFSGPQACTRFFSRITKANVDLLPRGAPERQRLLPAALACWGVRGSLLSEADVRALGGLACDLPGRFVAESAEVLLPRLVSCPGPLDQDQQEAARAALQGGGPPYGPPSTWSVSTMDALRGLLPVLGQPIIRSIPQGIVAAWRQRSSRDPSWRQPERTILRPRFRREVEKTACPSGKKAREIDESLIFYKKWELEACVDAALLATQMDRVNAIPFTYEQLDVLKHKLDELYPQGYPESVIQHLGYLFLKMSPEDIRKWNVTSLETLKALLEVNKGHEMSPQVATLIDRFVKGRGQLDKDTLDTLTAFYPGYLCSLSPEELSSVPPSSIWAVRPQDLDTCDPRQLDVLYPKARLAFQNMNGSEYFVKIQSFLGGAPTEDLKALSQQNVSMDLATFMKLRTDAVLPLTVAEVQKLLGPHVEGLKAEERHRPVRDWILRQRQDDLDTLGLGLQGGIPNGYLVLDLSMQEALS
Molecule,Rmax(RU) (mesothelin protein [1]; BIAcore T200),"ka (mesothelin protein [1]; BIAcore T200, 25 degree C, 1:1 Langmuir model) [M⁻¹ s⁻¹]","kd (mesothelin protein [1]; BIAcore T200, 25 degree C, 1:1 Langmuir model, listed as HuSS1) [s⁻¹]","kd (mesothelin protein [1]; BIAcore T200, 25 degree C, 1:1 Langmuir model, listed as HuSS1mAb) [s⁻¹]",Rmax(RU) (mesothelin protein [2]),Ka (mesothelin protein [2]; antibody/ADC captured on CM5 chip via anti-human IgG-Fc),"dissociation rate constant (koff) (mesothelin protein [2]; dissociation rate, antibody/ADC captured on CM5 chip)",body weight changes [3],tumor growth / anti-tumor activity ([3]; TGI≥58% considered significant),IC50 [4] [nM],body weight changes [5],ranking of efficacy potency [5],IC50 [6] [nM],body weight changes [7]
B1,180.6,4.493e+06,1.124e-05,1.124e-05,58.1,5.091E+6,8.593E−5,No body weight loss was observed,did not show significant anti-tumor activity,,,,,
B2,,,,,,,,,,23.9,No body weight loss was observed,DCBPR2002-4(DBCO-vc-seco-DUBA)=DCBPR2002-2(DBCO-vc-MMAE)-2(DBCO-vc-seco-DUBA)=DCBPR2002-2(DBCO-vc-seco-DUBA)-2(DBCO-s-DM1)>DCBPR2002-4(DBCO-vc-MMAE)>DCBPR2002-2(DBCO-vc-MMAE)-2(DBCO-s-DM1)>DCBPR2002-4(DBCO-s-DM1),19.4,No body weight loss was observed
